In the test the target is neuraminidase (NA) from A/Brisbane/02/2018 (H1N1), wild type (influenza A virus A/Brisbane/02/2018 (H1N1)). Put plainly: non-reducing SDS-PAGE.

In general, stoichiometry N refers to a count of units in the complex or per binding partner. On to “neuraminidase (NA) from A/Brisbane/02/2018 (H1N1), wild type (natural protein)”, for which the stoichiometry N was 2.

(Values after PMC12456132.)
